Numbered stars: 1 amine (or outer) side, 2 acyl side, 3 side chain; on linkers, the order of the positions; unused ones are H or OH. * marks the point of attachment. C20 diacid = O=C(O)CCCCCCCCCCCCCCCCCCC(=O)*; γGlu = O=C(O)[C@H](CCC(=O)[*:2])N[*:1]
T1: human amylin 3(a) receptor (human calcitonin receptor co-expressed with RAMP-3) on BHK570/CRE-luc cells (human, UniProt P30988 25-474; O60896 24-148)
T1 sequence (looked up) 1: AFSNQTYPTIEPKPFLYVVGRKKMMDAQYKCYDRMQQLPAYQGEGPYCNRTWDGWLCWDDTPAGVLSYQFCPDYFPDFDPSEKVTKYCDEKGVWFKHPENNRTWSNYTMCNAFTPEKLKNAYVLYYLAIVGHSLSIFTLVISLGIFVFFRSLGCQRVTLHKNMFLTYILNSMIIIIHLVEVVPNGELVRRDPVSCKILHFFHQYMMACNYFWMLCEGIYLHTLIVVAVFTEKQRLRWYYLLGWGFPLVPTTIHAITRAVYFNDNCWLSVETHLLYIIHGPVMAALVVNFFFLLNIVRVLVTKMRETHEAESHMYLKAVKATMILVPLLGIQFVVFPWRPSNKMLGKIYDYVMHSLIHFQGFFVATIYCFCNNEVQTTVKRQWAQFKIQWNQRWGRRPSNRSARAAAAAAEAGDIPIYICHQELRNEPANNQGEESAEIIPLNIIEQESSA
T1 sequence (looked up) 2: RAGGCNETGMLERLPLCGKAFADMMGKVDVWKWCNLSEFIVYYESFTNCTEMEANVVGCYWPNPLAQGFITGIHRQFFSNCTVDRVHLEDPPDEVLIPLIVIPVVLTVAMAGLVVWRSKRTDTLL

T2: human calcitonin receptor on BHK570/CRE-luc cells (human, UniProt P30988 25-474)
T2 sequence (looked up): T1 sequence (looked up) 1

B1: [N-terminal(C20 diacid-gGlu), des1, 4G, 15E, 21Q, 23Y, 30S, 31G, 32T, 33Y]mimylin (peptide)
peptide: {C20 diacid-γGlu}-ASGLSTAALGRLSEELHELQTYPRTETGSGTY-NH2
SMILES: CC(C)C[C@H](NC(=O)CNC(=O)[C@H](CO)NC(=O)[C@H](C)NC(=O)CC[C@H](NC(=O)CCCCCCCCCCCCCCCCCCC(=O)O)C(=O)O)C(=O)N[C@@H](CO)C(=O)N[C@H](C(=O)N[C@@H](C)C(=O)N[C@@H](C)C(=O)N[C@@H](CC(C)C)C(=O)NCC(=O)N[C@@H](CCCNC(=N)N)C(=O)N[C@@H](CC(C)C)C(=O)N[C@@H](CO)C(=O)N[C@@H](CCC(=O)O)C(=O)N[C@@H](CCC(=O)O)C(=O)N[C@@H](CC(C)C)C(=O)N[C@@H](Cc1c[nH]cn1)C(=O)N[C@@H](CCC(=O)O)C(=O)N[C@@H](CC(C)C)C(=O)N[C@@H](CCC(N)=O)C(=O)N[C@H](C(=O)N[C@@H](Cc1ccc(O)cc1)C(=O)N1CCC[C@H]1C(=O)N[C@@H](CCCNC(=N)N)C(=O)N[C@H](C(=O)N[C@@H](CCC(=O)O)C(=O)N[C@H](C(=O)NCC(=O)N[C@@H](CO)C(=O)NCC(=O)N[C@H](C(=O)N[C@@H](Cc1ccc(O)cc1)C(N)=O)[C@@H](C)O)[C@@H](C)O)[C@@H](C)O)[C@@H](C)O)[C@@H](C)O
B2: [N-terminal(C20 diacid-gGlu), des1, 9V, 15Q, 21Q, 23Y, 30S, 31G, 32T, 33Y]mimylin (peptide)
peptide: {C20 diacid-γGlu}-ASELSTAVLGRLSQELHELQTYPRTETGSGTY-NH2
SMILES: CC(C)C[C@H](NC(=O)[C@H](CCCNC(=N)N)NC(=O)CNC(=O)[C@H](CC(C)C)NC(=O)[C@@H](NC(=O)[C@H](C)NC(=O)[C@@H](NC(=O)[C@H](CO)NC(=O)[C@H](CC(C)C)NC(=O)[C@H](CCC(=O)O)NC(=O)[C@H](CO)NC(=O)[C@H](C)NC(=O)CC[C@H](NC(=O)CCCCCCCCCCCCCCCCCCC(=O)O)C(=O)O)[C@@H](C)O)C(C)C)C(=O)N[C@@H](CO)C(=O)N[C@@H](CCC(N)=O)C(=O)N[C@@H](CCC(=O)O)C(=O)N[C@@H](CC(C)C)C(=O)N[C@@H](Cc1c[nH]cn1)C(=O)N[C@@H](CCC(=O)O)C(=O)N[C@@H](CC(C)C)C(=O)N[C@@H](CCC(N)=O)C(=O)N[C@H](C(=O)N[C@@H](Cc1ccc(O)cc1)C(=O)N1CCC[C@H]1C(=O)N[C@@H](CCCNC(=N)N)C(=O)N[C@H](C(=O)N[C@@H](CCC(=O)O)C(=O)N[C@H](C(=O)NCC(=O)N[C@@H](CO)C(=O)NCC(=O)N[C@H](C(=O)N[C@@H](Cc1ccc(O)cc1)C(N)=O)[C@@H](C)O)[C@@H](C)O)[C@@H](C)O)[C@@H](C)O
B3: [N-terminal(C20 diacid-gGlu), 4Q, 9V, 15Q, 21Q, 23Y, 27G, 30S, 31G, 32T, 33Y]mimylin (peptide)
peptide: {C20 diacid-γGlu}-EASQLSTAVLGRLSQELHELQTYPRTGTGSGTY-NH2
SMILES: CC(C)C[C@H](NC(=O)[C@H](CCCNC(=N)N)NC(=O)CNC(=O)[C@H](CC(C)C)NC(=O)[C@@H](NC(=O)[C@H](C)NC(=O)[C@@H](NC(=O)[C@H](CO)NC(=O)[C@H](CC(C)C)NC(=O)[C@H](CCC(N)=O)NC(=O)[C@H](CO)NC(=O)[C@H](C)NC(=O)[C@H](CCC(=O)O)NC(=O)CC[C@H](NC(=O)CCCCCCCCCCCCCCCCCCC(=O)O)C(=O)O)[C@@H](C)O)C(C)C)C(=O)N[C@@H](CO)C(=O)N[C@@H](CCC(N)=O)C(=O)N[C@@H](CCC(=O)O)C(=O)N[C@@H](CC(C)C)C(=O)N[C@@H](Cc1c[nH]cn1)C(=O)N[C@@H](CCC(=O)O)C(=O)N[C@@H](CC(C)C)C(=O)N[C@@H](CCC(N)=O)C(=O)N[C@H](C(=O)N[C@@H](Cc1ccc(O)cc1)C(=O)N1CCC[C@H]1C(=O)N[C@@H](CCCNC(=N)N)C(=O)N[C@H](C(=O)NCC(=O)N[C@H](C(=O)NCC(=O)N[C@@H](CO)C(=O)NCC(=O)N[C@H](C(=O)N[C@@H](Cc1ccc(O)cc1)C(N)=O)[C@@H](C)O)[C@@H](C)O)[C@@H](C)O)[C@@H](C)O
B4: [N-terminal(C20 diacid-gGlu), des1, 4Q, 9V, 15Q, 21Q, 23Y, 30S, 31Q, 32T, 33Y]mimylin (peptide)
peptide: {C20 diacid-γGlu}-ASQLSTAVLGRLSQELHELQTYPRTETGSQTY-NH2
SMILES: CC(C)C[C@H](NC(=O)[C@H](CCCNC(=N)N)NC(=O)CNC(=O)[C@H](CC(C)C)NC(=O)[C@@H](NC(=O)[C@H](C)NC(=O)[C@@H](NC(=O)[C@H](CO)NC(=O)[C@H](CC(C)C)NC(=O)[C@H](CCC(N)=O)NC(=O)[C@H](CO)NC(=O)[C@H](C)NC(=O)CC[C@H](NC(=O)CCCCCCCCCCCCCCCCCCC(=O)O)C(=O)O)[C@@H](C)O)C(C)C)C(=O)N[C@@H](CO)C(=O)N[C@@H](CCC(N)=O)C(=O)N[C@@H](CCC(=O)O)C(=O)N[C@@H](CC(C)C)C(=O)N[C@@H](Cc1c[nH]cn1)C(=O)N[C@@H](CCC(=O)O)C(=O)N[C@@H](CC(C)C)C(=O)N[C@@H](CCC(N)=O)C(=O)N[C@H](C(=O)N[C@@H](Cc1ccc(O)cc1)C(=O)N1CCC[C@H]1C(=O)N[C@@H](CCCNC(=N)N)C(=O)N[C@H](C(=O)N[C@@H](CCC(=O)O)C(=O)N[C@H](C(=O)NCC(=O)N[C@@H](CO)C(=O)N[C@@H](CCC(N)=O)C(=O)N[C@H](C(=O)N[C@@H](Cc1ccc(O)cc1)C(N)=O)[C@@H](C)O)[C@@H](C)O)[C@@H](C)O)[C@@H](C)O
B5: [N-terminal(C20 diacid-gGlu), des1, 4G, 15Q, 21Q, 23Y, 25H, 30S, 31G, 32T, 33Y]mimylin (peptide)
peptide: {C20 diacid-γGlu}-ASGLSTAALGRLSQELHELQTYPHTETGSGTY-NH2
SMILES: CC(C)C[C@H](NC(=O)CNC(=O)[C@H](CO)NC(=O)[C@H](C)NC(=O)CC[C@H](NC(=O)CCCCCCCCCCCCCCCCCCC(=O)O)C(=O)O)C(=O)N[C@@H](CO)C(=O)N[C@H](C(=O)N[C@@H](C)C(=O)N[C@@H](C)C(=O)N[C@@H](CC(C)C)C(=O)NCC(=O)N[C@@H](CCCNC(=N)N)C(=O)N[C@@H](CC(C)C)C(=O)N[C@@H](CO)C(=O)N[C@@H](CCC(N)=O)C(=O)N[C@@H](CCC(=O)O)C(=O)N[C@@H](CC(C)C)C(=O)N[C@@H](Cc1c[nH]cn1)C(=O)N[C@@H](CCC(=O)O)C(=O)N[C@@H](CC(C)C)C(=O)N[C@@H](CCC(N)=O)C(=O)N[C@H](C(=O)N[C@@H](Cc1ccc(O)cc1)C(=O)N1CCC[C@H]1C(=O)N[C@@H](Cc1c[nH]cn1)C(=O)N[C@H](C(=O)N[C@@H](CCC(=O)O)C(=O)N[C@H](C(=O)NCC(=O)N[C@@H](CO)C(=O)NCC(=O)N[C@H](C(=O)N[C@@H](Cc1ccc(O)cc1)C(N)=O)[C@@H](C)O)[C@@H](C)O)[C@@H](C)O)[C@@H](C)O)[C@@H](C)O
B6: [N-terminal(C20 diacid-gGlu), des1, 4G, 9V, 15Q, 21Q, 23Y, 30S, 31G, 32T, 33Y]mimylin (peptide)
peptide: {C20 diacid-γGlu}-ASGLSTAVLGRLSQELHELQTYPRTETGSGTY-NH2
SMILES: CC(C)C[C@H](NC(=O)CNC(=O)[C@H](CO)NC(=O)[C@H](C)NC(=O)CC[C@H](NC(=O)CCCCCCCCCCCCCCCCCCC(=O)O)C(=O)O)C(=O)N[C@@H](CO)C(=O)N[C@H](C(=O)N[C@@H](C)C(=O)N[C@H](C(=O)N[C@@H](CC(C)C)C(=O)NCC(=O)N[C@@H](CCCNC(=N)N)C(=O)N[C@@H](CC(C)C)C(=O)N[C@@H](CO)C(=O)N[C@@H](CCC(N)=O)C(=O)N[C@@H](CCC(=O)O)C(=O)N[C@@H](CC(C)C)C(=O)N[C@@H](Cc1c[nH]cn1)C(=O)N[C@@H](CCC(=O)O)C(=O)N[C@@H](CC(C)C)C(=O)N[C@@H](CCC(N)=O)C(=O)N[C@H](C(=O)N[C@@H](Cc1ccc(O)cc1)C(=O)N1CCC[C@H]1C(=O)N[C@@H](CCCNC(=N)N)C(=O)N[C@H](C(=O)N[C@@H](CCC(=O)O)C(=O)N[C@H](C(=O)NCC(=O)N[C@@H](CO)C(=O)NCC(=O)N[C@H](C(=O)N[C@@H](Cc1ccc(O)cc1)C(N)=O)[C@@H](C)O)[C@@H](C)O)[C@@H](C)O)[C@@H](C)O)C(C)C)[C@@H](C)O
B7: [N-terminal(C20 diacid-gGlu), des1, 4G, 9V, 15Q, 21Q, 23Y, 30S, 31Q, 32T, 33Y]mimylin (peptide)
peptide: {C20 diacid-γGlu}-ASGLSTAVLGRLSQELHELQTYPRTETGSQTY-NH2
SMILES: CC(C)C[C@H](NC(=O)CNC(=O)[C@H](CO)NC(=O)[C@H](C)NC(=O)CC[C@H](NC(=O)CCCCCCCCCCCCCCCCCCC(=O)O)C(=O)O)C(=O)N[C@@H](CO)C(=O)N[C@H](C(=O)N[C@@H](C)C(=O)N[C@H](C(=O)N[C@@H](CC(C)C)C(=O)NCC(=O)N[C@@H](CCCNC(=N)N)C(=O)N[C@@H](CC(C)C)C(=O)N[C@@H](CO)C(=O)N[C@@H](CCC(N)=O)C(=O)N[C@@H](CCC(=O)O)C(=O)N[C@@H](CC(C)C)C(=O)N[C@@H](Cc1c[nH]cn1)C(=O)N[C@@H](CCC(=O)O)C(=O)N[C@@H](CC(C)C)C(=O)N[C@@H](CCC(N)=O)C(=O)N[C@H](C(=O)N[C@@H](Cc1ccc(O)cc1)C(=O)N1CCC[C@H]1C(=O)N[C@@H](CCCNC(=N)N)C(=O)N[C@H](C(=O)N[C@@H](CCC(=O)O)C(=O)N[C@H](C(=O)NCC(=O)N[C@@H](CO)C(=O)N[C@@H](CCC(N)=O)C(=O)N[C@H](C(=O)N[C@@H](Cc1ccc(O)cc1)C(N)=O)[C@@H](C)O)[C@@H](C)O)[C@@H](C)O)[C@@H](C)O)C(C)C)[C@@H](C)O

These binders were tested against T1, human amylin 3(a) receptor (human …) (assay: cell-based or functional assay).
For B1, the “hAmylin-R funct. EC50 (pM), tested with HSA” value (“hAmylin-R funct. EC50 (pM)” below) was 159 pM. With B2 the “hAmylin-R funct. EC50 (pM)” value was 142 pM. B3 was tested, and the “hAmylin-R funct. EC50 (pM)” value was 546 pM. B4 was tested, and the “hAmylin-R funct. EC50 (pM)” value was 67 pM. For B5, the “hAmylin-R funct. EC50 (pM)” value was 212 pM. B6 was tested, and the “hAmylin-R funct. EC50 (pM)” value was 105 pM. B7 was tested, and the “hAmylin-R funct. EC50 (pM)” value was 86 pM.

What follows are binders tested against T2, human calcitonin receptor on … (assay: cell-based or functional assay).
With B1 the “hCTR funct. EC50 (pM), tested with HSA” value was 57 pM. For B2, the “hCTR funct. EC50 (pM), tested with HSA” value was 97 pM. In the case of B3, the “hCTR funct. EC50 (pM), tested with HSA” value is reported as 366 pM. B4 was tested, and the “hCTR funct. EC50 (pM), tested with HSA” value was 36 pM. B5 was tested, and the “hCTR funct. EC50 (pM), tested with HSA” value was 99 pM. In the case of B6, the “hCTR funct. EC50 (pM), tested with HSA” value is reported as 54 pM. In the case of B7, the “hCTR funct. EC50 (pM), tested with HSA” value is reported as 61 pM.

Reference: US20160272683A1 (Novo Nordisk, published 2016)
